B1: xi-IgA1-9F4 (antibody, V domains shown)
VH: QVQLQQSEAELARPGASVKMSCKASGFTLTTFTIHWVKQRPGQGLEWIGYINPRSGYTDYNQKFKDNTTLTVDKSSSTAYMQLSSLTSEDSAVFYCARSYYDYDVFDYWGQGTTLTVSS
VL: DVQMTQSPSSLSASLGGKVTITCTARQDINKYIAWYQHKPGKGPRLLIHYTSTLQPGIPSRFSGSGSGTDYSFTISNLEPEDIATYYCLQYDNLVTFGGGTKLELKR
B2: xi-IgG1-9F4 (antibody, V domains shown)
V domain 1: QQSEAELARPGASVKMSCKASGFTLTTFTIHWVKQRPGQGLEWIGYINPRSGYTDYNQKFKDNTTLTVDKSSSTAYMQLSSLTSEDSAVFYCARSYYDYDVFDYWGQGTTLTV
V domain 2: DVQMTQSPSSLSASLGGKVTITCTARQDINKYIAWYQHKPGKGPRLLIHYTSTLQPGIPSRFSGSGSGTDYSFTISNLEPEDIATYYCLQYDNLVTFGGGTK

Assays:
[1] = target: VN04-HA, full length HA of A/Vietnam/1203/2004(H5N1) (clade 1) (influenza A virus A/Vietnam/1203/2004(H5N1)); assay: cell-based or functional assay
[2] = target: VN04-HA, full length HA of A/Vietnam/1203/2004(H5N1) (clade 1) (influenza A virus A/Vietnam/1203/2004(H5N1))
[3] = target: DL06-HA, full length HA of A/duck/Laos/3295/2006(H5N1) (clade 2.3.4) (influenza A virus A/duck/Laos/3295/2006(H5N1))
[4] = target: Hatay04-HA, full length HA of A/chicken/Hatay/2004(H5N1) (clade 1) (influenza A virus A/chicken/Hatay/2004(H5N1))
[5] = target: DL06-HA, full length HA of A/duck/Laos/3295/2006(H5N1) (clade 2.3.4) (influenza A virus A/duck/Laos/3295/2006(H5N1)); assay: cell-based or functional assay
[6] = target: Indo05-HA, full length HA of A/Indonesia/5/2005(H5N1) (clade 2.1) (influenza A virus A/Indonesia/5/2005(H5N1)); assay: cell-based or functional assay

| Binder | IC50, entry of HA-pseudotyped lentiviral particles into MDCK cells (luciferase) [1] | fold change of IC50 in the HApp neutralization assay against mouse-9F4 [1] | inhibition of VN04-HApp entry at 1000 ng/ml [1] | endpoint titre [2] | endpoint titre [3] | endpoint titre [4] | reduction of HApp entry at the highest concentration tested [1] | IC50, entry of HA-pseudotyped lentiviral particles into MDCK cells (luciferase) [5] | reduction of HApp entry at the highest concentration tested [5] | IC50, entry of HA-pseudotyped lentiviral particles into MDCK cells (luciferase) [6] |
| --- | --- | --- | --- | --- | --- | --- | --- | --- | --- | --- |
| B1 | 100 ng/mL | 10 fold | 75% | 1250 ng/mL | 1250 ng/mL | 1250 ng/mL | – | – | – | – |
| B2 | 10 ng/mL | – | – | – | – | – | 90% | 10 ng/mL | 90% | 10 ng/mL |

Source: patent US20170306001A1
